Biological target: HLA-DR on 1088-EBV cells (autologous EBV-B cells of patient 1088) (human)
Assay: cell-based or functional assay

B1: monoclonal antibody L243 (anti-HLA-DR; IgG2a) (antibody, from another filing, V domains shown)
VH: QIQLVQSGPELKKPGETVKISCKASGFTFTNYGMNWVKQAPGKGLKWMGWINTYTREPTYADDFKGRFAFSLETSASTAYLQINNLKNEDTAKYFCARDITAVVPTGFDYWGQGTTLTVSS
VL: DIQMTQSPASLSVSVGETVTITCRASENIYSNLAWYRQKQGKSPQLLVFAASNLADGVPSRFSGSGSGTQYSLKINSLQSEDFGDYYCQHFWTTPWAFGGGTNLEIKR
- inhibition of GM-CSF secretion by CD4+ TIL 1088 stimulated with 1088-EBV pulsed with autologous melanoma lysate (mAb 23 ug/ml): 96%
